Several values for one entry are separate records, joined by “and”; a condition that tells them apart may be missing. Identical values can stand only once. Each block holds one molecule with its values, some of them ahead of it.
Legend:
[1] = molecular target: human CLPB isoform 1 (human); assay: negative staining electron microscopy + cryo-EM 2D classification; CLPB^isoform1-AMPPNP dataset, protein purified from E. coli
[2] = molecular target: human CLPB NBD-only variant (N-terminal ANK domain truncated) (human) (UniProt Q9H078); assay: cryo-EM 2D classification; NBD^WT-AMPPNP dataset
[3] = molecular target: human CLPB NBD-only variant with E425Q (human) (UniProt Q9H078); assay: cryo-EM structure; NBD^E425Q-ATP dataset; self-assembly into hexamer, heptamer and nonamer
[4] = molecular target: the molecule itself; assay: SEC; purification of CLPB, CLPB^Δ201–232 and CLPB^isoform1 complexes by size-exclusion chromatography (S7C–S7E Fig)
[5] = molecular target: the molecule itself; assay: cryo-EM 2D classification; CLPB-ATPγS dataset, control without casein
[6] = molecular target: the molecule itself; assay: SEC + other: negative staining electron microscopy; proteins purified from E. coli; Superose 6 Increase 10/300 GL, 20 mM HEPES-KOH pH 6.8, 300 mM KCl, 5 mM MgCl2; with or without AMPPNP; peak fraction seen by nsEM
[7] = molecular target: the molecule itself; assay: cryo-EM structure; CLPB^E425Q-ATP dataset; sample treated with ATP and about 1 mM BS3, 0.5 mM CHAPSO added; self-assembly of the mutant

stoichiometry N [1]: 14
Molecule: human CLPB isoform 1 (enzyme)

stoichiometry N [2]: 6 and 7
Molecule: human CLPB NBD-only variant (N-terminal ANK domain truncated) (from UniProt Q9H078-2 1-677) (domain or fragment)

stoichiometry N [3]: 6 and 7 and 9
Molecule: human CLPB NBD-only variant with E425Q (from UniProt Q9H078-2 1-677) (domain or fragment)

B1: human CLPB (isoform 2) with the ANK insertion deleted (enzyme, UniProt Q9H078-2 127-677, looked up)
chain: YSKSPSNKDAALLEAARANNMQEVSRLLSEGADVNAKHRLGWTALMVAAINRNNSVVQVLLAAGADPNLGDDFSSFKGCTALHYAVLADDYRTVKELLDGGANPLQRNEMGHTPLDYAREGEVMKLLRTSEAKYQEKQRKREAEERRRFPLEQRLKEHIIGQESAIATVGAAIRRKENGWYDEEHPLVFLFLGSSGIGKTELAKQTAKYMHKDAKKGFIRLDMSEFQERHEVAKFIGSPPGYVGHEEGGQLTKKLKQCPNAVVLFDEVDKAHPDVLTIMLQLFDEGRLTDGKGKTIDCKDAIFIMTSNVASDEIAQHALQLRQEALEMSRNRIAENLGDVQISDKITISKNFKENVIRPILKAHFRRDEFLGRINEIVYFLPFCHSELIQLVNKELNFWAKRAKQRHNITLLWDREVADVLVDGYNVHYGARSIKHEVERRVVNQLAAAYEQDLLPGGCTLRITVEDSDKQLLKSPELPSPQAEKRLPKLRLEIIDKDSKTRRLDIRAPLHPEKVCNTI
notes: human CLPB isoform 2 (CLPB-N127) with the insertion between AM2 and AM3 completely deleted; source: E. coli, purified; not shown: His×6-SUMO, N-terminal, cleaved
binding result [4]: binds

B2: human CLPB (isoform 2), construct CLPB-N127, wild type (enzyme, UniProt Q9H078-2 127-677, looked up)
chain: YSKSPSNKDAALLEAARANNMQEVSRLLSEGADVNAKHRLGWTALMVAAINRNNSVVQVLLAAGADPNLGDDFSSVYKTAKEQGIHSLEVLITREDDFNNRLNNRASFKGCTALHYAVLADDYRTVKELLDGGANPLQRNEMGHTPLDYAREGEVMKLLRTSEAKYQEKQRKREAEERRRFPLEQRLKEHIIGQESAIATVGAAIRRKENGWYDEEHPLVFLFLGSSGIGKTELAKQTAKYMHKDAKKGFIRLDMSEFQERHEVAKFIGSPPGYVGHEEGGQLTKKLKQCPNAVVLFDEVDKAHPDVLTIMLQLFDEGRLTDGKGKTIDCKDAIFIMTSNVASDEIAQHALQLRQEALEMSRNRIAENLGDVQISDKITISKNFKENVIRPILKAHFRRDEFLGRINEIVYFLPFCHSELIQLVNKELNFWAKRAKQRHNITLLWDREVADVLVDGYNVHYGARSIKHEVERRVVNQLAAAYEQDLLPGGCTLRITVEDSDKQLLKSPELPSPQAEKRLPKLRLEIIDKDSKTRRLDIRAPLHPEKVCNTI
notes: human CLPB, splicing isoform 2, starting from the PARL cleavage site (between C126 and Y127) to the C-terminus; Double-heptamer (tetradecamer) in the apo state; about 1 mM BS3 was added to the samples for cryo-EM; also called SKD3; WT CLPB; source: E. coli Transetta (DE3), purified (ammonium sulfate, Mono Q, TEV cleavage, Superose 6 SEC); not shown: His×6-SUMO, N-terminal, cleaved; copies: 14
stoichiometry N [5]: 14

B3: human CLPB (isoform 2) R227E (enzyme, UniProt Q9H078-2 127-677, looked up)
chain: YSKSPSNKDAALLEAARANNMQEVSRLLSEGADVNAKHRLGWTALMVAAINRNNSVVQVLLAAGADPNLGDDFSSVYKTAKEQGIHSLEVLITREDDFNNELNNRASFKGCTALHYAVLADDYRTVKELLDGGANPLQRNEMGHTPLDYAREGEVMKLLRTSEAKYQEKQRKREAEERRRFPLEQRLKEHIIGQESAIATVGAAIRRKENGWYDEEHPLVFLFLGSSGIGKTELAKQTAKYMHKDAKKGFIRLDMSEFQERHEVAKFIGSPPGYVGHEEGGQLTKKLKQCPNAVVLFDEVDKAHPDVLTIMLQLFDEGRLTDGKGKTIDCKDAIFIMTSNVASDEIAQHALQLRQEALEMSRNRIAENLGDVQISDKITISKNFKENVIRPILKAHFRRDEFLGRINEIVYFLPFCHSELIQLVNKELNFWAKRAKQRHNITLLWDREVADVLVDGYNVHYGARSIKHEVERRVVNQLAAAYEQDLLPGGCTLRITVEDSDKQLLKSPELPSPQAEKRLPKLRLEIIDKDSKTRRLDIRAPLHPEKVCNTI
notes: human CLPB isoform 2 (CLPB-N127) with R227E; also called CLPB^R227E; source: E. coli, purified; not shown: His×6-SUMO, N-terminal, cleaved
binding result [6]: binds

B4: human CLPB (isoform 2, CLPB-N127) Walker B mutant E425Q (enzyme, UniProt Q9H078-2 127-677, looked up)
chain: YSKSPSNKDAALLEAARANNMQEVSRLLSEGADVNAKHRLGWTALMVAAINRNNSVVQVLLAAGADPNLGDDFSSVYKTAKEQGIHSLEVLITREDDFNNRLNNRASFKGCTALHYAVLADDYRTVKELLDGGANPLQRNEMGHTPLDYAREGEVMKLLRTSEAKYQEKQRKREAEERRRFPLEQRLKEHIIGQESAIATVGAAIRRKENGWYDEEHPLVFLFLGSSGIGKTELAKQTAKYMHKDAKKGFIRLDMSEFQERHEVAKFIGSPPGYVGHEEGGQLTKKLKQCPNAVVLFDQVDKAHPDVLTIMLQLFDEGRLTDGKGKTIDCKDAIFIMTSNVASDEIAQHALQLRQEALEMSRNRIAENLGDVQISDKITISKNFKENVIRPILKAHFRRDEFLGRINEIVYFLPFCHSELIQLVNKELNFWAKRAKQRHNITLLWDREVADVLVDGYNVHYGARSIKHEVERRVVNQLAAAYEQDLLPGGCTLRITVEDSDKQLLKSPELPSPQAEKRLPKLRLEIIDKDSKTRRLDIRAPLHPEKVCNTI
notes: human CLPB isoform 2 from the PARL cleavage site (Y127) to the C-terminus, with E425Q; Double-hexamer (dodecamer) with a co-purified endogenous peptide in the central channel; also called CLPB^E425Q; source: E. coli, purified as the wild type; not shown: His×6-SUMO, N-terminal, cleaved; copies: 12
stoichiometry N [7]: 12

B5: human CLPB (isoform 2) R178E (enzyme, UniProt Q9H078-2 127-677, looked up)
chain: YSKSPSNKDAALLEAARANNMQEVSRLLSEGADVNAKHRLGWTALMVAAINENNSVVQVLLAAGADPNLGDDFSSVYKTAKEQGIHSLEVLITREDDFNNRLNNRASFKGCTALHYAVLADDYRTVKELLDGGANPLQRNEMGHTPLDYAREGEVMKLLRTSEAKYQEKQRKREAEERRRFPLEQRLKEHIIGQESAIATVGAAIRRKENGWYDEEHPLVFLFLGSSGIGKTELAKQTAKYMHKDAKKGFIRLDMSEFQERHEVAKFIGSPPGYVGHEEGGQLTKKLKQCPNAVVLFDEVDKAHPDVLTIMLQLFDEGRLTDGKGKTIDCKDAIFIMTSNVASDEIAQHALQLRQEALEMSRNRIAENLGDVQISDKITISKNFKENVIRPILKAHFRRDEFLGRINEIVYFLPFCHSELIQLVNKELNFWAKRAKQRHNITLLWDREVADVLVDGYNVHYGARSIKHEVERRVVNQLAAAYEQDLLPGGCTLRITVEDSDKQLLKSPELPSPQAEKRLPKLRLEIIDKDSKTRRLDIRAPLHPEKVCNTI
notes: human CLPB isoform 2 (CLPB-N127) with R178E; also called CLPB^R178E; source: E. coli, purified; not shown: His×6-SUMO, N-terminal, cleaved
binding result [6]: binds
